Results reported in patent US20210395381A1 (OSSIANIX, published 2021).
Residue numbers refer to the chain shown, from its start.

B1: Clone 8.89 (VNAR)
VNAR: ARVDQTPQTITKETGESLTINCVLRDSNCALPSTYWYRKKSGSTNEESISKGGRYVETVNSGSKSFSLRINDLTVEDSGTYRCKVIAQLSSILFGCDYRKHDVYGDGTAVTVNA
notes: VNAR on phage; Clone 8 framework
B2: Clone 8.100 (VNAR)
VNAR: B1 VNAR with I86P, A87H, Q88M, F94R, D97N
notes: as for B1
B3: Clone 8.111 (VNAR)
VNAR: B1 VNAR with F94R, D97N, R99D, K100V, H101N
notes: as for B1
B4: Clone 8.105 (VNAR)
VNAR: B1 VNAR with I86V, Q88L, L89Q, S90E, F94R, D97N
notes: as for B1
B5: Clone 8.124 (VNAR)
VNAR: B1 VNAR with I92V, L93K, F94D, D97N
notes: as for B1
B6: Clone 8.93 (VNAR)
VNAR: B1 VNAR with L89Q, F94R, D97N
notes: as for B1
B7: Clone 8.91 (VNAR)
VNAR: B1 VNAR with I92R, L93K, F94G, D97N
notes: as for B1
B8: Clone 8.126 (VNAR)
VNAR: B1 VNAR with L89Q, S90D, S91Q, I92D, F94R, D97N
notes: as for B1
B9: Clone 8.118 (VNAR)
VNAR: B1 VNAR with I92R, L93A, F94M, D97N
notes: as for B1
B10: Clone 8.112 (VNAR)
VNAR: B1 VNAR with I92V, L93Y, F94K, D97N
notes: as for B1
B11: Clone 8.123 (VNAR)
VNAR: B1 VNAR with L93M, F94R, D97N, R99I, K100M, H101R
notes: as for B1
B12: Clone 8.101 (VNAR)
VNAR: B1 VNAR with S90H, S91T, I92H, F94R, D97N
notes: as for B1
B13: Clone 8.102 (VNAR)
VNAR: B1 VNAR with F94R, D97A, Y98G, R99V
notes: as for B1
B14: Clone 8.127 (VNAR)
VNAR: B1 VNAR with Q88K, L89P, S90N, F94R, D97N
notes: as for B1
B15: Clone 8.96 (VNAR)
VNAR: B1 VNAR with I92M, L93Y, F94K, D97N
notes: as for B1
B16: Clone 8.117 (VNAR)
VNAR: B1 VNAR with F94A, G95L, D97M
notes: as for B1
B17: Clone 8.115 (VNAR)
VNAR: B1 VNAR with Q88L, L89H, S90R, F94R, D97N
notes: as for B1
B18: Clone 8.119 (VNAR)
VNAR: B1 VNAR with I92V, L93F, F94I, D97N
notes: as for B1
B19: Clone 8.116 (VNAR)
VNAR: B1 VNAR with S90N, S91H, I92Y, F94R, D97N
notes: as for B1
B20: Clone 8.99 (VNAR)
VNAR: B1 VNAR with I86L, A87F, Q88D, F94R, D97N
notes: as for B1
B21: Clone 8.106 (VNAR)
VNAR: B1 VNAR with I86V, I92H, L93Y, F94D, D97N
notes: as for B1
B22: Clone 8.110 (VNAR)
VNAR: B1 VNAR with S90K, S91W, I92G, F94R, D97N
notes: as for B1
B23: Clone 8.94 (VNAR)
VNAR: B1 VNAR with Q88D, L89V, S90G, F94R, D97N
notes: as for B1
B24: Clone 8.128 (VNAR)
VNAR: B1 VNAR with S90I, S91K, I92N, F94R, D97N
notes: as for B1
B25: Clone 8.95 (VNAR)
VNAR: B1 VNAR with F94L, G95K, D97E
notes: as for B1
B26: Clone 8.120 (VNAR)
VNAR: B1 VNAR with I92Y, L93R, F94P, D97N
notes: VNAR on phage; Clone 8 framework; same CDR3 as 8.113
B27: Clone 8.107 (VNAR)
VNAR: B1 VNAR with D97N, R99F, H101N
notes: as for B1
B28: Clone 8.114 (VNAR)
VNAR: B1 VNAR with L89P, F94R, D97N, R99G, H101L
notes: as for B1
B29: Clone 8.103 (VNAR)
VNAR: B1 VNAR with F94R, D97K, Y98Q, R99F, K100E, H101Y
notes: as for B1
B30: Clone 8.122 (VNAR)
VNAR: B1 VNAR with F94R, D97N, K100A, H101S
notes: as for B1
B31: Clone 8.104 (VNAR)
VNAR: B1 VNAR with I92R, L93E, F94L, D97N
notes: VNAR on phage; Clone 8 framework; same CDR3 as 8.133
B32: Clone 8.108 (VNAR)
VNAR: B1 VNAR with F94R, D97N, R99K, K100N, H101V
notes: as for B1
B33: Clone 8.125 (VNAR)
VNAR: B1 VNAR with I92Y, L93E, F94T, D97N
notes: as for B1
B34: Clone 8.98 (VNAR)
VNAR: B1 VNAR with I86L, A87E, Q88K, F94R, D97N
notes: as for B1
B35: Clone 8.92 (VNAR)
VNAR: B1 VNAR with S90T, S91Q, I92W, F94R, D97N
notes: as for B1
B36: Clone 8.113 (VNAR)
VNAR: B1 VNAR with I92Y, L93R, F94P, D97N
notes: VNAR on phage; Clone 8 framework; same CDR3 as 8.120
B37: Clone 8.109 (VNAR)
VNAR: B1 VNAR with F94R, D97N, R99T, K100L, H101Y
notes: as for B1
B38: Clone 8.90 (VNAR)
VNAR: B1 VNAR with F94R, D97N, R99L, K100Y, H101I
notes: as for B1
B39: Clone 8.121 (VNAR)
VNAR: B1 VNAR with Q88T, S90G, F94R, D97N
notes: as for B1

Molecular target: T1, recombinant mouse TfR-1 (mouse, UniProt Q62351 89-763)
T1 construct: Recombinant protein coated at 1 ug/ml in the phage ELISA; also called mTfR1; mouse transferrin receptor-1
Experiment: phage ELISA

T1 sequence (Q62351 89-763 limits assumed): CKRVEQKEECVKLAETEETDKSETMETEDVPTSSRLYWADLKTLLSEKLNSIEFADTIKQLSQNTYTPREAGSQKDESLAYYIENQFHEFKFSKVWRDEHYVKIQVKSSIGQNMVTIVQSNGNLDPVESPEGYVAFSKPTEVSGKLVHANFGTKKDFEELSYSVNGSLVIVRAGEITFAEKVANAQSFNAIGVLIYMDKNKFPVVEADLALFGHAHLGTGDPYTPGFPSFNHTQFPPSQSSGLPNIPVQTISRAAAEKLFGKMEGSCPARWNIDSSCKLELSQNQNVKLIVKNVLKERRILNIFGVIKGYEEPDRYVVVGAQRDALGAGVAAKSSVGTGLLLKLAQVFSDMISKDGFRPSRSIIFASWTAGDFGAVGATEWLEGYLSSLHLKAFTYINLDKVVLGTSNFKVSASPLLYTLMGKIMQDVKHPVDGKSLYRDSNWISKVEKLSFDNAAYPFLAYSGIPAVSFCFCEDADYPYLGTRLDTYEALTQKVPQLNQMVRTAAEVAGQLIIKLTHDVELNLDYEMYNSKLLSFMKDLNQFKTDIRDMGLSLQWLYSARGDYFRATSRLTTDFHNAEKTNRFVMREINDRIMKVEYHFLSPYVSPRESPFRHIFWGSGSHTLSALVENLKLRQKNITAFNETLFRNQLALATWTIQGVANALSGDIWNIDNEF

Going from B1 to B2, the A450 falls from 0.055 A450 to 0.053 A450.

Compared with B3, B4 is higher in A450: 0.05 A450 for the first, 0.051 A450 for the second.

Going from B5 to B6, the A450 rises from 0.048 A450 to 0.055 A450.

Compared with B7, B8 is lower in A450: 0.055 A450 for the first, 0.048 A450 for the second.

Compared with B9, B10 is higher in A450: 0.049 A450 for the first, 0.05 A450 for the second.

First: B11
Second: B12
The A450 of the first is lower: 0.048 A450 for the first, 0.052 A450 for the second.

Compared with B13, B14 is lower in A450: 0.052 A450 for the first, 0.047 A450 for the second.

First: B15
Second: B16
The A450 of the first is higher: 0.054 A450 for the first, 0.049 A450 for the second.

B17 and B18 are the same in A450: 0.049 A450 for the first, 0.049 A450 for the second.

Going from B19 to B20, the A450 rises from 0.049 A450 to 0.053 A450.

Going from B21 to B22, the A450 falls from 0.051 A450 to 0.05 A450.

Going from B23 to B24, the A450 falls from 0.054 A450 to 0.047 A450.

First: B25
Second: B26
The A450 of the first is higher: 0.054 A450 for the first, 0.049 A450 for the second.

Compared with B27, B28 is lower in A450: 0.051 A450 for the first, 0.05 A450 for the second.

First: B29
Second: B30
The A450 of the first is higher: 0.052 A450 for the first, 0.048 A450 for the second.

First: B31
Second: B32
The A450 of the first is higher: 0.052 A450 for the first, 0.051 A450 for the second.

First: B33
Second: B34
The A450 of the first is lower: 0.048 A450 for the first, 0.053 A450 for the second.

Compared with B35, B36 is lower in A450: 0.055 A450 for the first, 0.05 A450 for the second.

Going from B37 to B38, the A450 rises from 0.051 A450 to 0.055 A450.

Binder B39 has an A450 of 0.049 A450.

Molecular target: T2, recombinant human TfR-1 (human, UniProt P02786 89-760)
T2 construct: Recombinant protein coated at 1 ug/ml in the phage ELISA; also called hTfR1; human transferrin receptor-1
Experiment: phage ELISA

T2 sequence (P02786 89-760 limits assumed): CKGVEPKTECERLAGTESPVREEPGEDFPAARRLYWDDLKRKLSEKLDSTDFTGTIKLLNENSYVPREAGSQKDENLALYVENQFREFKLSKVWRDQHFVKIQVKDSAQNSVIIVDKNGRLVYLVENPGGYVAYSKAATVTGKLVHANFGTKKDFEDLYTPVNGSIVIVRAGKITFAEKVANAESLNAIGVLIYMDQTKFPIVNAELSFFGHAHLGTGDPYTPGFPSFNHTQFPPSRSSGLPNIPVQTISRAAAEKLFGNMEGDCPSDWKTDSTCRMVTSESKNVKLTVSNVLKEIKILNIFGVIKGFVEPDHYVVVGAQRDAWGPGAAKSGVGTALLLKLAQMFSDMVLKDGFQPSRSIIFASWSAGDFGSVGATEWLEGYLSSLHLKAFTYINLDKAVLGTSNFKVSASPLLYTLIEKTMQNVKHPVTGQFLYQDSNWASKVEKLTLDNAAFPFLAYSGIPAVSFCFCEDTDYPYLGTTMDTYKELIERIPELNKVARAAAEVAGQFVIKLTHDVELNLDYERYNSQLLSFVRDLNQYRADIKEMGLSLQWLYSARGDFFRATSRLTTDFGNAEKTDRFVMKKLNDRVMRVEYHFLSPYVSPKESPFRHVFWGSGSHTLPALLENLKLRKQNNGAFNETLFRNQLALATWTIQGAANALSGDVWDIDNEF

B1 and B2 are the same in A450: 0.048 A450 for the first, 0.048 A450 for the second.

First: B3
Second: B4
The A450 of the first is higher: 0.056 A450 for the first, 0.047 A450 for the second.

First: B5
Second: B6
The A450 of the first is lower: 0.049 A450 for the first, 0.05 A450 for the second.

First: B7
Second: B8
The A450 of the first is higher: 0.071 A450 for the first, 0.05 A450 for the second.

Going from B9 to B10, the A450 falls from 0.051 A450 to 0.05 A450.

B11 and B12 are the same in A450: 0.048 A450 for the first, 0.048 A450 for the second.

Compared with B13, B14 is lower in A450: 0.049 A450 for the first, 0.047 A450 for the second.

Going from B15 to B16, the A450 rises from 0.051 A450 to 0.056 A450.

Going from B17 to B18, the A450 falls from 0.047 A450 to 0.045 A450.

Compared with B19, B20 is lower in A450: 0.066 A450 for the first, 0.059 A450 for the second.

Going from B21 to B22, the A450 rises from 0.054 A450 to 0.055 A450.

Compared with B23, B24 is lower in A450: 0.06 A450 for the first, 0.051 A450 for the second.

Compared with B25, B26 is lower in A450: 0.049 A450 for the first, 0.048 A450 for the second.

First: B27
Second: B28
The A450 of the first is lower: 0.048 A450 for the first, 0.058 A450 for the second.

First: B29
Second: B30
The A450 of the first is higher: 0.05 A450 for the first, 0.047 A450 for the second.

Going from B31 to B32, the A450 falls from 0.05 A450 to 0.044 A450.

First: B33
Second: B34
The A450 of the first is lower: 0.05 A450 for the first, 0.055 A450 for the second.

B35 and B36 are the same in A450: 0.051 A450 for the first, 0.051 A450 for the second.

First: B37
Second: B38
The A450 of the first is higher: 0.055 A450 for the first, 0.054 A450 for the second.

With B39 the A450 was 0.049 A450.
